According to patent publication US20180074079A1:

Legend:
[1] = target: rHDL bearing apoA-IW19:A136 (human) (UniProt P02647); experiment: FRET (Trp19 to AEDANS136) exchange assay, rHDL to lipid-free protein 1:5 molar, 37 C
[2] = target: rHDL bearing apoA-IW19:A136 (human) (UniProt P02647); experiment: FRET exchange assay, rHDL to lipid-free protein 1:5 molar, 37 C
[3] = target: rHDL bearing apoA-IW19:A136 (human) (UniProt P02647); experiment: FRET exchange assay, biphasic fit
[4] = target: HDL in human plasma (human); experiment: EPR, frozen and thawed plasma
[5] = target: HDL in human plasma (human); experiment: EPR, increasing probe concentration in patient plasma
[6] = target: HDL in human plasma (human); experiment: EPR, frozen and thawed plasma with higher TG concentration
[7] = target: HDL in human plasma (human); experiment: EPR, center peak amplitude over time, 0.3 mg/ml probe in plasma of patient D1
[8] = target: HDL in human plasma (human); experiment: EPR, center peak amplitude over time, 0.3 mg/ml probe in plasma of patient M1
[9] = target: HDL in human plasma (human); experiment: EPR, center peak amplitude over time, 0.3 mg/ml probe in plasma of patient N1
[10] = target: HDL in human plasma (human); experiment: EPR, frozen and thawed plasma with higher TG concentration, third freeze-thaw
[11] = target: 9.6 nm POPC rHDL generated with Alexa 350 labeled apoA-I (human) (UniProt P02647); experiment: displacement/exchange, rHDL apoA-I to lipid-free apoA-I 1:5 molar, 37 C, NDGGE fluorescence
Sequence of 9.6 nm POPC rHDL generated with Alexa 350 labeled apoA-I (human) (P02647 25-267): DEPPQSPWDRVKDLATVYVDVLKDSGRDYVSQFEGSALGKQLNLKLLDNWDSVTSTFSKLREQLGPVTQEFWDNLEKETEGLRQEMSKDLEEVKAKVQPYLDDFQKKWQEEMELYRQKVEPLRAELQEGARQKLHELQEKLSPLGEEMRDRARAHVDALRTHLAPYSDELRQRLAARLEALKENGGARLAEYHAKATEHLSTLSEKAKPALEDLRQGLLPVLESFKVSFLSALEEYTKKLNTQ

Sequence of rHDL bearing apoA-IW19:A136 (human) (P02647 other isoform, or with tags, fused parts or gaps): as the sequence (P02647 25-267) above, with W8F, V19W, W50F, W72F, W108F, E136C counted along it

Trp Null apoA-I (four endogenous tryptophans substituted for phenylalanine) (from UniProt P02647 25-267)
exponential relaxation time (time to 50% maximal exchange, τ) [1]: 0.94 h

Trp Null apoA-I oxidized by peroxynitrite (from UniProt P02647 25-267)
exponential relaxation time of exchange (t) [2]: 0.67 h

Trp Null apoA-I oxidized by the MPO-H2O2-nitrite system (from UniProt P02647 25-267)
exchange impaired population [3]: 57.3% | unaffected population [3]: 42.7% | exponential relaxation time of exchange (t1) [2]: 0.92 h | exponential relaxation time of exchange (t2) [2]: 18.8 h

apoA-ISL217 (apoA-I bearing a G217C mutation, cysteine derivatized with a thiosulfonate linked nitroxide spin label) (from UniProt P02647 25-267)
reduction of rate and degree of binding after a freeze-thaw cycle [4]: 10% | reduction of rate and degree of binding after the third freeze-thaw [4]: 20% | saturating concentration [5]: 1.9 mg/mL | decrease in EPR observable binding after freeze-thaw, plasma with higher TG [6]: 15% | time to maximal binding (patient D1) [7]: 10 min | time to maximal binding (patient M1) [8]: 8 min | time to binding (patient N1) [9]: < 5 min | decrease in EPR observable binding after freeze-thaw, plasma with higher TG [10]: 25%

unlabeled lipid-free apoA-I (from UniProt P02647 25-267)
release of Alexa350 labeled apoA-I from rHDL into the lipid-free pool [11]: > 90%
